Data from publication PMC3205914 (Nature cell biology, 2010).

How the values were obtained:
[1] = molecular target: the molecule itself; assay: light scattering
[2] = molecular target: T1, ParB (Caulobacter crescentus centromere-binding protein), immobilized for SPR (C. crescentus, UniProt B8GW30 1-304); assay: SPR
T1 sequence (looked up): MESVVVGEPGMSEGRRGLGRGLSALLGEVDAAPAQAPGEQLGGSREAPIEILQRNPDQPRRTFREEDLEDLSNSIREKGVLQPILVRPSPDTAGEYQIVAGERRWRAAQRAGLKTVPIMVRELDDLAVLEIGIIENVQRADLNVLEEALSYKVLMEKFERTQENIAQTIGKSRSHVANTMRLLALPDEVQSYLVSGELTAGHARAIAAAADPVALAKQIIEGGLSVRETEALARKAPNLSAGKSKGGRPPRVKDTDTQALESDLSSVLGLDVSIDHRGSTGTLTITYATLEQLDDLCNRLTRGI

[3] = molecular target: T2, 6His–ParB (Caulobacter crescentus) (C. crescentus, UniProt B8GW30 1-304); assay: SPR
T2 sequence (looked up): T1 sequence (looked up)

binding result [2]: binds
binding result [3]: binds
B1: ParA (Caulobacter crescentus ATPase ParA), purified (enzyme, C. crescentus, UniProt B8GW31 1-267, looked up)
chain: MSANPLRVLAIANQKGGVGKTTTAINLGTALAACGERVLLIDADPQGNCSTGLGIGRTQRRTTLYDVLMGEAPVVDAAVKTELPGLDVIPADADLSGVEIELGQTARRSYRLRDALEAIRANGPYTYVLIDCPPSLNVLTVNAMTAADAVFVPLQCEFFALEGLTQLMRTIERVRGSLNPRLEIQGVVLTMYDRRNSLSEQVAKDVRAHFGDKVYDAVIPRNVRVSEAPSFGKPVLLYDLKCAGSQAYLKLAREVISRERDRQAKAA
binding result [1]: binds
